Measurements taken from patent publication CN113234160A (GUANGZHOU EXCELMAB BIOMEDICAL TECH CO LTD, dated 2021).

Key:
[1] = biological target: T1, 人PD-1抗原 (ACRO, Cat.PD-1-H5221) (human, UniProt Q15116 25-167); assay: indirect ELISA, human PD-1 coated
T1 construct: Bought antigen coated on ELISA plates; also called human PD-1 antigen; hPD-1

[2] = biological target: T2, 人PD-1抗原 on Jurkat/PD-1 cells (human, UniProt Q15116 25-288); assay: indirect flow cytometry on Jurkat/PD-1 cells
T2 construct: whole, on cells; Used for the flow cytometry cells and for the Jurkat reporter cells that carry PD-1; also called 过表达人PD-1抗原的Jurkat细胞; Jurkat/hPD-1 NFAT-Luciferase
T2 sequence (Q15116 25-288): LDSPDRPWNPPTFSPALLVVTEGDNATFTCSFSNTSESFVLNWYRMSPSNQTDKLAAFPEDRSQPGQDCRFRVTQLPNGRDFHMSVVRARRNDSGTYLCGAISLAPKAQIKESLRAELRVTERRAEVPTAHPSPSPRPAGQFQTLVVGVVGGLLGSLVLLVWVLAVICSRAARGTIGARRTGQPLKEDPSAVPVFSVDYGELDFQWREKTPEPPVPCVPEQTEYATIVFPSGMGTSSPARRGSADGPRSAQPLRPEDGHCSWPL

T1 sequence (Q15116 25-167 limits assumed): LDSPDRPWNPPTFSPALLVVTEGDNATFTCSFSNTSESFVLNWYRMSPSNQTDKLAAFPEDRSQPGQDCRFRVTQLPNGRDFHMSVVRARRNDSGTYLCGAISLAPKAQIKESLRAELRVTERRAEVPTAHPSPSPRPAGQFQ

- binding result [1]: binds
- binding result [2]: binds
B1: hmp12 (antibody, V domains shown)
VH: EVQLVESGGGLVKPGGSLRLSCAASGFTFSSYDMSWVRQAPGKGLEWVATISGGGSYTYYADSVKGRFTISRDNAKNSLYLQMNSLRAEDTALYYCASPYAGYFDVWGQGTMVTVSS
VL: DIQMTQSPSSLSASVGDRVTITCSASSSISSNYLHWYQQKPGKAPKLLIYRTSNLQSGVPARFSGSGSGTSYSLTISSLQPEDFATYYCQQGSSIPLTFGQGTKLEIK
notes: also called 人源化抗体hmp12
